Measurements published in PMC8073977, “Structural Basis for the C-Terminal Domain of Mycobacterium tuberculosis Ribosome Maturation Factor RimM to Bind Ribosomal Protein S19” (Biomolecules, 2021).

B1: C-terminal domain of RimM from Mycobacterium tuberculosis (MtbRimMCTD, residues 101-176), wild type (domain or fragment)
chain: DTYYDHQLVGLMVQTATGEGVGVVTEVVHTAAGELLAVKRDSDEVLVPFVRAIVTSVSLDDGIVEIDPPHGLLNLE
notes: A starting Met stands before D101 (Nde I site); Surmise: pET-22b with Xho I adds Leu-Glu before the His6 tag; Theoretical Mw of the recombinant protein printed as 9.28 kDa; 15N-labelled in the NMR titrations, unlabelled in SPR; also called WT MtbRimMCTD; not shown: His6, C-terminal, kept
B2: MtbRimMCTD H129A (domain or fragment)
chain: DTYYDHQLVGLMVQTATGEGVGVVTEVVATAAGELLAVKRDSDEVLVPFVRAIVTSVSLDDGIVEIDPPHGLLNLE
notes: Same limits and tag as m1; not shown: His6, C-terminal, kept
B3: MtbRimMCTD E144A (domain or fragment)
chain: DTYYDHQLVGLMVQTATGEGVGVVTEVVHTAAGELLAVKRDSDAVLVPFVRAIVTSVSLDDGIVEIDPPHGLLNLE
notes: as for B2
B4: MtbRimMCTD D105A (domain or fragment)
chain: DTYYAHQLVGLMVQTATGEGVGVVTEVVHTAAGELLAVKRDSDEVLVPFVRAIVTSVSLDDGIVEIDPPHGLLNLE
notes: Same limits and tag as m1; also called MtbRimM D105A; not shown: His6, C-terminal, kept
B5: MtbRimMCTD E126A (domain or fragment)
chain: DTYYDHQLVGLMVQTATGEGVGVVTAVVHTAAGELLAVKRDSDEVLVPFVRAIVTSVSLDDGIVEIDPPHGLLNLE
notes: as for B2

Target: T1, Ribosomal protein S19 from Mycobacterium tuberculosis (MtbS19, residues 1-93) (Mycobacterium tuberculosis strain H37Rv, UniProt P9WH45 1-93)
T1 construct: 30S ribosomal protein S19, M. tuberculosis H37Rv, residues 1-93; pET-28a with thrombin-cleavable N-terminal His6-tag; Surmise: a few vector residues remain at the N-terminus after thrombin cleavage; In PDB 5V93 residues 84-93 of S19 are absent; not shown: His6, N-terminal, cleaved
Test: SPR; Biacore T200, 298 K; […]; 20 mM potassium phosphate pH 7.2, 100 mM KCl; […]
Settings: both partners purified

T1 sequence (P9WH45 whole entry, the tested form may be a part): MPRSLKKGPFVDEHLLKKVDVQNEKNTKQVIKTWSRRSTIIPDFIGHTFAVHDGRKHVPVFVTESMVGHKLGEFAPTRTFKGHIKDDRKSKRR

Row | Binder | Kd [µM] | binding result
1 | B1 | 2.16 | 
2 | B2 | 12.7 | 
3 | B3 |  | binds
4 | B4 | 7.06 | 
5 | B5 |  | binds
